# Assay results reported in PMC9482650, “Quantitative fragmentomics allow affinity mapping of interactomes” (Nature Communications, 2022).
# Key:
# Assay in all cases: holdup assay
# Set-up in all cases: key: below the threshold = too weak to quantify, mostly under pKd 3.1 to 4
# FRMPD1, Q5SYB0 = target: T1, FRMPD1, Q5SYB0
# T1 sequence (Q5SYB0 52-145, limits assumed, looked up): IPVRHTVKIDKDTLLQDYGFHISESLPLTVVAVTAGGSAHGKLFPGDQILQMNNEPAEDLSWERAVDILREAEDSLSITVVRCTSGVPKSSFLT
# DLG2_3, Q15700 = target: DLG2_3, Q15700
# GIPC2, Q8TF65 = target: GIPC2, Q8TF65
# GIPC2, Q8TF65, sequence (Q8TF65 112-203): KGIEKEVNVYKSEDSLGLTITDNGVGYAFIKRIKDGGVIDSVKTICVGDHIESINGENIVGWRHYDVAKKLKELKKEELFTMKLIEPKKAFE
# Inadl_5, Q8NI35 = target: Inadl_5, Q8NI35
# Inadl_5, Q8NI35, sequence (Q8NI35 673-780): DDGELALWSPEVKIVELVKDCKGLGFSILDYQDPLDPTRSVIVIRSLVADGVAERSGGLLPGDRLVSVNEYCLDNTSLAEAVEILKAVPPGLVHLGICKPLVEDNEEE
# SCRIB_1, Q14160 = target: SCRIB_1, Q14160
# SCRIB_1, Q14160, sequence (Q14160 718-814): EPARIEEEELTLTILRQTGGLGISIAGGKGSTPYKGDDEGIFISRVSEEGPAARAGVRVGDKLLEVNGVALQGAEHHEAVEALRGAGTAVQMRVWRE
# GRASP, Q7Z6J2 = target: GRASP, Q7Z6J2
# GRASP, Q7Z6J2, sequence (Q7Z6J2 96-193): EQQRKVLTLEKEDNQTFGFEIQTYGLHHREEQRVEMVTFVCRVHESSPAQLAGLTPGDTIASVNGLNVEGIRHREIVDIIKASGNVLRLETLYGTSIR
# MAGI2_2, Q86UL8 = target: MAGI2_2, Q86UL8
# MAGI2_2, Q86UL8, sequence (Q86UL8 410-522): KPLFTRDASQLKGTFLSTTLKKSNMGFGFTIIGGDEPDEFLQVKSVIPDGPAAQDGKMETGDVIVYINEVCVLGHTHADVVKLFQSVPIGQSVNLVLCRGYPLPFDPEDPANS
# IL16_3, Q14005 = target: IL16_3, Q14005
# IL16_3, Q14005, sequence (Q14005 1107-1207): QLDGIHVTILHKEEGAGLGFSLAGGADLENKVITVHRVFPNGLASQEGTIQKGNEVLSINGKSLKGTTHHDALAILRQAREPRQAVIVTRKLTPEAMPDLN
# PDLIM1, O00151 = target: PDLIM1, O00151
# PDLIM1, O00151, sequence (O00151 1-87): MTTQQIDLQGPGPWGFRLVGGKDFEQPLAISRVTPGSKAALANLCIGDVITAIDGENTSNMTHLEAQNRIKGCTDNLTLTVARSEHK
# MPDZ_10, O75970 = target: T2, MPDZ_10, O75970
# T2 sequence (O75970 1624-1722, limits assumed, looked up): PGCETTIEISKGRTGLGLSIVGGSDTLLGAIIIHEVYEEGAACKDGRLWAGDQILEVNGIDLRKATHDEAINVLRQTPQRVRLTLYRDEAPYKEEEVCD
# NHERF3_1, Q5T2W1 = target: T3, NHERF3_1, Q5T2W1
# T3 sequence (Q5T2W1 4-100, limits assumed, looked up): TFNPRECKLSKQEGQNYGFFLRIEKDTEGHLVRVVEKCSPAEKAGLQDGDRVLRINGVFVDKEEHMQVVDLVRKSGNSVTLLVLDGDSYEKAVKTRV
# GRID2IP_1, A4D2P6 = target: GRID2IP_1, A4D2P6
# GRID2IP_1, A4D2P6, sequence (A4D2P6 1-87): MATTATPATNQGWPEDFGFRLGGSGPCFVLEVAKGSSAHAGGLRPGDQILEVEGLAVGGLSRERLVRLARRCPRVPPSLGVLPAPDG
# MAGI2_3, Q86UL8 = target: MAGI2_3, Q86UL8
# MAGI2_3, Q86UL8, sequence (Q86UL8 600-682): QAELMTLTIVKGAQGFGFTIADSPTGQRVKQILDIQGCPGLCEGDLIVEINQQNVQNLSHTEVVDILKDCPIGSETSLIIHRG
# CASK, O14936 = target: CASK, O14936
# CASK, O14936, sequence (O14936 487-570): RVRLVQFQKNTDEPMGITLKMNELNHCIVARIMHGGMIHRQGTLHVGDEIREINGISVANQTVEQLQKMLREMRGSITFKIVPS
# LIN7A, O14910 = target: T4, LIN7A, O14910
# T4 sequence (O14910 103-200, limits assumed, looked up): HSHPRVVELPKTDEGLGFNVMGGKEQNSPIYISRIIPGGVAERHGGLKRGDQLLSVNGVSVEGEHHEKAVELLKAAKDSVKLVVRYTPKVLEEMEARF
# RADIL, Q96JH8 = target: T5, RADIL, Q96JH8
# T5 sequence (Q96JH8 971-1071, limits assumed, looked up): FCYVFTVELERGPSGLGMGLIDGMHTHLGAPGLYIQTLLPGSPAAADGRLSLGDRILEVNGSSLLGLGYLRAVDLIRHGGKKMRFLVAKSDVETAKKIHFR
# DFNB31_2, Q9P202 = target: T6, DFNB31_2, Q9P202
# T6 sequence (Q9P202 274-371, limits assumed, looked up): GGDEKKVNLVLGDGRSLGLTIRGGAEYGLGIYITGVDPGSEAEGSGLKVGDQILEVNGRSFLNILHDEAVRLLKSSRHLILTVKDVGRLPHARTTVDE
# GRIP2_3, Q9C0E4 = target: GRIP2_3, Q9C0E4
# GRIP2_3, Q9C0E4, sequence (Q9C0E4 238-339): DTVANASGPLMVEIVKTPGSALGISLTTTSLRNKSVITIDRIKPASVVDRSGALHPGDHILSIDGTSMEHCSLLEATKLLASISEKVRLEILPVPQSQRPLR
# MPDZ_5, O75970 = target: T7, MPDZ_5, O75970
# T7 sequence (O75970 695-796, limits assumed, looked up): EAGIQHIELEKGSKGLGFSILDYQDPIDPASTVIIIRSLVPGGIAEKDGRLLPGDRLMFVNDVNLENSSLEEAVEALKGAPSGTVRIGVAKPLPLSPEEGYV
# TJP2_1, Q9UDY2 = target: TJP2_1, Q9UDY2
# TJP2_1, Q9UDY2, sequence (Q9UDY2 24-128): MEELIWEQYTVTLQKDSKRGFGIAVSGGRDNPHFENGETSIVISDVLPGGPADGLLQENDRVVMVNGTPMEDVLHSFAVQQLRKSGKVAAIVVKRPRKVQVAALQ
# DLG3_1, Q92796 = target: T8, DLG3_1, Q92796
# T8 sequence (Q92796 125-227, limits assumed, looked up): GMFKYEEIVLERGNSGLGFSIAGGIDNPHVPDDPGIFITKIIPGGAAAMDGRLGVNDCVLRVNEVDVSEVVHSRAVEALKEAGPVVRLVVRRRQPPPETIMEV
# FRMPD2_3, Q68DX3 = target: FRMPD2_3, Q68DX3
# FRMPD2_3, Q68DX3, sequence (Q68DX3 1073-1166): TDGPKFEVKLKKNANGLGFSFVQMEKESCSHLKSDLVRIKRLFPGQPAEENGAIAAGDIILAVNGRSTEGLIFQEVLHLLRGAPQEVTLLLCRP
# MAGI1_1, Q96QZ7 = target: MAGI1_1, Q96QZ7
# MAGI1_1, Q96QZ7, sequence (Q96QZ7 1-106): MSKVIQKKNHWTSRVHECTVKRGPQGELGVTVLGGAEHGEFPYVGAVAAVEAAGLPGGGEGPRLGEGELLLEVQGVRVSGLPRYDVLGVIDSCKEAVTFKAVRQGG
# PARD3B_1, Q8TEW8 = target: T9, PARD3B_1, Q8TEW8
# T9 sequence (Q8TEW8 196-299, limits assumed, looked up): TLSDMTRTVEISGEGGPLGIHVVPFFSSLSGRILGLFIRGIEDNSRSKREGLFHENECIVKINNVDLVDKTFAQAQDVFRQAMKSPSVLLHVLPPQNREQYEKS
# Inadl_1, Q8NI35 = target: Inadl_1, Q8NI35
# Inadl_1, Q8NI35, sequence (Q8NI35 113-229): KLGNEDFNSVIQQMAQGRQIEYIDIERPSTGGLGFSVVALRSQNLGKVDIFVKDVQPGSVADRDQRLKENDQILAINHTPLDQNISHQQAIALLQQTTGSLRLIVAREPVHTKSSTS
# Inadl_10, Q8NI35 = target: Inadl_10, Q8NI35
# Inadl_10, Q8NI35, sequence (Q8NI35 1673-1763): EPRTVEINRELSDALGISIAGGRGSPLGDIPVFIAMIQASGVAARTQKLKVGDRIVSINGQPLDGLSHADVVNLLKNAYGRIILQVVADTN
# SCRIB_2, Q14160 = target: SCRIB_2, Q14160
# SCRIB_2, Q14160, sequence (Q14160 857-960): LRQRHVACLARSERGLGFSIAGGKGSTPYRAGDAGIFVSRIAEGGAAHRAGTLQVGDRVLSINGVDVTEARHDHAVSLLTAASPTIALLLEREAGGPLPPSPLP
# DFNB31_1, Q9P202 = target: T10, DFNB31_1, Q9P202
# T10 sequence (Q9P202 135-233, limits assumed, looked up): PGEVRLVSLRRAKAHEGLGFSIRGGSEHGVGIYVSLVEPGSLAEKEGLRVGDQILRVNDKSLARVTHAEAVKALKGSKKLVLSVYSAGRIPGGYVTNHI
# [1] = plain residues with an end cap or a label only (N-terminal biotin on a linker: ahx)
# [2] = plain residues with an end cap or a label only (N-terminal biotin on a linker: ado-ado)
binder,measurement,setting,value
"TIVSWPGTFL [LNX1, Q8TBB1]",pKd,"FRMPD1, Q5SYB0; [1]",below the threshold
same,pKd,"DLG2_3, Q15700; [1]",below the threshold
same,pKd,"GIPC2, Q8TF65; [1]",below the threshold
same,pKd,"Inadl_5, Q8NI35; [1]",below the threshold
same,pKd,"SCRIB_1, Q14160; [1]",below the threshold
same,pKd,"GRASP, Q7Z6J2; [1]",4.15
same,pKd,"MAGI2_2, Q86UL8; [1]",below the threshold
same,pKd,"IL16_3, Q14005; [1]",below the threshold
same,pKd,"PDLIM1, O00151; [1]",3.63
same,pKd,"MPDZ_10, O75970; [1]",3.6
same,pKd,"NHERF3_1, Q5T2W1; [1]",5.34
same,pKd,"GRID2IP_1, A4D2P6; [1]",below the threshold
same,pKd,"MAGI2_3, Q86UL8; [1]",below the threshold
same,pKd,"CASK, O14936; [1]",below the threshold
same,pKd,"LIN7A, O14910; [1]",below the threshold
same,pKd,"RADIL, Q96JH8; [1]",4.45
same,pKd,"DFNB31_2, Q9P202; [1]",below the threshold
same,pKd,"GRIP2_3, Q9C0E4; [1]",below the threshold
same,pKd,"MPDZ_5, O75970; [1]",below the threshold
same,pKd,"TJP2_1, Q9UDY2; [1]",below the threshold
same,pKd,"DLG3_1, Q92796; [1]",below the threshold
same,pKd,"FRMPD2_3, Q68DX3; [1]",below the threshold
same,pKd,"MAGI1_1, Q96QZ7; [1]",below the threshold
same,pKd,"PARD3B_1, Q8TEW8; [1]",4.31
same,pKd,"Inadl_1, Q8NI35; [1]",below the threshold
same,pKd,"Inadl_10, Q8NI35; [1]",4.25
same,pKd,"SCRIB_2, Q14160; [1]",below the threshold
same,pKd,"DFNB31_1, Q9P202; [1]",below the threshold
"GKKSVKHSKI [ACOT6, Q3I5F7]",pKd,"FRMPD1, Q5SYB0; [2]",below the threshold
same,pKd,"DLG2_3, Q15700; [2]",3.65
same,pKd,"GIPC2, Q8TF65; [2]",below the threshold
same,pKd,"Inadl_5, Q8NI35; [2]",below the threshold
same,pKd,"SCRIB_1, Q14160; [2]",3.82
same,pKd,"GRASP, Q7Z6J2; [2]",below the threshold
same,pKd,"MAGI2_2, Q86UL8; [2]",3.96
same,pKd,"IL16_3, Q14005; [2]",below the threshold
same,pKd,"PDLIM1, O00151; [2]",below the threshold
same,pKd,"MPDZ_10, O75970; [2]",below the threshold
same,pKd,"NHERF3_1, Q5T2W1; [2]",3.66
same,pKd,"GRID2IP_1, A4D2P6; [2]",below the threshold
same,pKd,"MAGI2_3, Q86UL8; [2]",below the threshold
same,pKd,"CASK, O14936; [2]",below the threshold
same,pKd,"LIN7A, O14910; [2]",below the threshold
same,pKd,"RADIL, Q96JH8; [2]",below the threshold
same,pKd,"DFNB31_2, Q9P202; [2]",3.81
same,pKd,"GRIP2_3, Q9C0E4; [2]",below the threshold
same,pKd,"MPDZ_5, O75970; [2]",below the threshold
same,pKd,"TJP2_1, Q9UDY2; [2]",below the threshold
same,pKd,"DLG3_1, Q92796; [2]",below the threshold
same,pKd,"FRMPD2_3, Q68DX3; [2]",below the threshold
same,pKd,"MAGI1_1, Q96QZ7; [2]",below the threshold
same,pKd,"PARD3B_1, Q8TEW8; [2]",below the threshold
same,pKd,"Inadl_1, Q8NI35; [2]",below the threshold
same,pKd,"Inadl_10, Q8NI35; [2]",below the threshold
same,pKd,"SCRIB_2, Q14160; [2]",below the threshold
same,pKd,"DFNB31_1, Q9P202; [2]",4.33
